The series concerns ATP. The series can be described thus: switch fluorescence ratio, 500 uM ATP over buffer (Cy3 cluster intensity, sum of 5 cycles each) (fold (ratio)); higher = stronger signal-on switching upon ATP binding; sequences stand for … in TCGTCGGCAGCGTCAGATGTGTATAAGAGACAGTTTTTTTTTTTTTTTTTTTTTTTTT…TC. Conditions: aptamer strand: ATP DNA aptamer (quencher-CACCTGGGGGAGTATTGCGGAGGAAGG + anchor), 100 nM annealed; ATP concentration: 500 uM. In outline: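 Exposure to 500 uM ATP lasted 15 min at 22 °C before imaging, and a selection-buffer image was taken beforehand, for Cy3-labelled switching-strand clusters on a modified Illumina MiSeq flow-cell annealed to 100 nM quencher-labelled ATP aptamer. Five buffer/ATP cycles were run with NaOH stripping and re-annealing between them. The fluorescence ratio per cluster is summed target-cycle over summed buffer-cycle Cy3 intensity, averaged per switch-domain sequence. Clusters outside 100-1000 RFU were excluded.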

± gives the standard deviation of the averaged measurements.

CTAGTTTTTA: the switch fluorescence ratio turned out to be 1.009 ± 0.007.
Take CTATACTTGA: the switch fluorescence ratio came to 0.999 ± 0.031.
Turning to CTATCAACCG, the switch fluorescence ratio is 1.04 ± 0.022.
For CTATCCATGG, the switch fluorescence ratio came out at 0.993 ± 0.017.
Take CTATCTCTTG: the switch fluorescence ratio was determined as 1 ± 0.017.
CTATGACGTT: the switch fluorescence ratio was 0.998 ± 0.019.
Under CTATGATATT stands 0.947 ± 0.042; under CTATGATTCG, 1.01 ± 0.023; under CTATGATTTA, 0.975 ± 0.027.
Take CTATGGGCCG: the switch fluorescence ratio was 0.972 ± 0.028.
In the case of CTATGTAGTC, the switch fluorescence ratio was determined as 1.01 ± 0.019.
Under CTATGTGGAG stands 0.975 ± 0.033.
Consider CTATGTGTGG, for which the switch fluorescence ratio came out at 0.976 ± 0.021.
For CTATTAGGGC, the switch fluorescence ratio was determined as 1.04 ± 0.0026.
Turning to CTATTGGGAT, the switch fluorescence ratio is 0.98078 ± 0.00046.
As for CTATTGGTTA, the switch fluorescence ratio was 1.01 ± 0.011.
With CTCAAAGTCT the figure was 1.02 ± 0.012; with CTCAACACCT, 1.35 ± 0.048.
With CTCAATAGGG the figure was 1.01 ± 0.038.
For the sequence CTCAATTATG, the switch fluorescence ratio was found to be 0.972 ± 0.043.
Under CTCACATTGA stands 1.05 ± 0.025; under CTCAGGTATC, 1.11 ± 0.012.
CTCAGTATTT: the switch fluorescence ratio came out at 1.01 ± 0.018.
Under CTCAGTGGTA stands 1.014 ± 0.0043.
Turning to CTCATAGCGG, the switch fluorescence ratio stood at 1.02 ± 0.029.
Under CTCATAGTAG stands 0.988 ± 0.016.
For the sequence CTCATCGGGC, the switch fluorescence ratio came to 1.06 ± 0.032.
Regarding CTCATGAAAC, the switch fluorescence ratio turned out to be 1.01 ± 0.046.
Under CTCATGACGG stands 1.044 ± 0.0061; under CTCATGGGGA, 1.04 ± 0.075.
CTCATTTGGT: the switch fluorescence ratio was determined as 0.989 ± 0.028.
On to CTCCAGGGGA, for which the switch fluorescence ratio was 1.5 ± 0.49.
Regarding CTCCGAGATG, the switch fluorescence ratio worked out at 5.85 ± 0.59.
Under CTCCGGGGGA stands 1.33 ± 0.31; under CTCCGTTTTT, 2.88 ± 0.62; under CTCCTGTGTT, 1.06 ± 0.0073.
As to CTCCTGTTTT, the switch fluorescence ratio stood at 1.02 ± 0.023.
In the case of CTCGACAGGG, the switch fluorescence ratio worked out at 0.991 ± 0.019.
Consider CTCGGAGAGG, for which the switch fluorescence ratio is 0.987 ± 0.033.
Under CTCGGAGATT stands 1.01 ± 0.018; under CTCGGAGGGA, 0.985 ± 0.04.
For the sequence CTCGGCGTCC, the switch fluorescence ratio stood at 1.142 ± 0.0086.
As for CTCGGCTTGA, the switch fluorescence ratio came out at 1.06 ± 0.018.
With CTCGGGATCA the figure was 1.011 ± 0.0028; with CTCGGGGGGC, 0.992 ± 0.063; with CTCGGGGTCG, 0.994 ± 0.047.
With CTCGGGGTTT the figure was 0.998 ± 0.038; with CTCGGTATGC, 1.257 ± 0.0034; with CTCGGTTAGG, 0.9819 ± 0.0095.
With CTCGTAGGGG, the switch fluorescence ratio was 1.01 ± 0.039.
Consider CTCGTTGAGG, for which the switch fluorescence ratio was found to be 0.979 ± 0.032.
With CTCGTTGCGG the figure was 1.06 ± 0.07; with CTCGTTTGAT, 1 ± 0.026; with CTCTAAGGGT, 1.005 ± 0.0098.
Under CTCTAAGTCG stands 0.976 ± 0.011; under CTCTGAGCGG, 1.03 ± 0.048.
In the case of CTCTGAGGGA, the switch fluorescence ratio stood at 1.01 ± 0.027.
Regarding CTCTGGGCAT, the switch fluorescence ratio is 2.2 ± 1.9.
In the case of CTCTGTAGGC, the switch fluorescence ratio was 1.87 ± 0.31.
As to CTCTGTCACG, the switch fluorescence ratio stood at 1.11 ± 0.074.
For the sequence CTCTTAGGGG, the switch fluorescence ratio amounted to 1.12 ± 0.16.
With CTCTTGAGCC the figure was 1.01 ± 0.044; with CTCTTTGGAC, 1.53 ± 0.89; with CTCTTTTGGG, 0.9652 ± 0.0019.
Consider CTGAAAGATA, for which the switch fluorescence ratio stood at 0.977 ± 0.055.
With CTGAAATCTG the figure was 0.9971 ± 0.0094.

Source of the values: the supplement of paper PMC10126150.
